Data reported in the supplement of paper PMC11136658.

System: peptide library, one residue held at a place counted from the Y acceptor
Assay: relative phosphorylation of the sub-library (ratio to the mean residue at this position); higher = residue favoured
Outline: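 Peptide library mixtures, biotinylated and centred on Tyr, each fixed one residue at one position from −5 to +5. Purified recombinant kinases were incubated with them for 90 min in 384-well plates alongside 50 μM ATP and γ-32P-ATP, and the captured, rinsed peptides on streptavidin membranes were measured by phosphorimaging and ImageQuant. Normalization divided each position's intensities by the sum of its 18 randomized residues (16 for the Ser/Thr-free library) and multiplied by that number, so that values give phosphorylation relative to the mean randomized residue.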

Chain of PDHK4, construct: Full length, human (Q16654 whole entry, looked up): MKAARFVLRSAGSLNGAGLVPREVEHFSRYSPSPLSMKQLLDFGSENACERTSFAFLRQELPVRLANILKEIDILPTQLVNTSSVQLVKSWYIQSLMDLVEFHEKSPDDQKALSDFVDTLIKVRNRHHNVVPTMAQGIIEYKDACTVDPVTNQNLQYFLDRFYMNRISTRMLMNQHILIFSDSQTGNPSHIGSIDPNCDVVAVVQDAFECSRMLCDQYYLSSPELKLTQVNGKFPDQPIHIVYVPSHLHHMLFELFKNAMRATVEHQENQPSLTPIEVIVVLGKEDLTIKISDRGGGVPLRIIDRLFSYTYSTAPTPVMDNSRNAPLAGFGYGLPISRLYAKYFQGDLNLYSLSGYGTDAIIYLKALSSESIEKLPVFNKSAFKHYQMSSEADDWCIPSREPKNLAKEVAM
Chain of RET, construct: aa658-end, human (P07949 658-1114, looked up): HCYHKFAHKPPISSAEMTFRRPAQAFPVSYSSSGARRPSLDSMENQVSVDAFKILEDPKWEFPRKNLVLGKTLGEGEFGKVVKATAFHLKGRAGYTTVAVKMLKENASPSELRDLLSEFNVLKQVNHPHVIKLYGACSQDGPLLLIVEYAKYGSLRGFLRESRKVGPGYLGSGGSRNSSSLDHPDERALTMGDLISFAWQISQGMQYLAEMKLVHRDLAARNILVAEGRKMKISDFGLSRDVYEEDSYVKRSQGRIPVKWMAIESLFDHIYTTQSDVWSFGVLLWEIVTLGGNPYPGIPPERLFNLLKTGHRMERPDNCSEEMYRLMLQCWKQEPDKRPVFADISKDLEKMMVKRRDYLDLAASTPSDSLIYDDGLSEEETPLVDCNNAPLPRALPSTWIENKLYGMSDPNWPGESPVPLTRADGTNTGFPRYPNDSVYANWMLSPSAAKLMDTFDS
Chain of PTK2, construct: Full length, human (Q05397 whole entry, looked up): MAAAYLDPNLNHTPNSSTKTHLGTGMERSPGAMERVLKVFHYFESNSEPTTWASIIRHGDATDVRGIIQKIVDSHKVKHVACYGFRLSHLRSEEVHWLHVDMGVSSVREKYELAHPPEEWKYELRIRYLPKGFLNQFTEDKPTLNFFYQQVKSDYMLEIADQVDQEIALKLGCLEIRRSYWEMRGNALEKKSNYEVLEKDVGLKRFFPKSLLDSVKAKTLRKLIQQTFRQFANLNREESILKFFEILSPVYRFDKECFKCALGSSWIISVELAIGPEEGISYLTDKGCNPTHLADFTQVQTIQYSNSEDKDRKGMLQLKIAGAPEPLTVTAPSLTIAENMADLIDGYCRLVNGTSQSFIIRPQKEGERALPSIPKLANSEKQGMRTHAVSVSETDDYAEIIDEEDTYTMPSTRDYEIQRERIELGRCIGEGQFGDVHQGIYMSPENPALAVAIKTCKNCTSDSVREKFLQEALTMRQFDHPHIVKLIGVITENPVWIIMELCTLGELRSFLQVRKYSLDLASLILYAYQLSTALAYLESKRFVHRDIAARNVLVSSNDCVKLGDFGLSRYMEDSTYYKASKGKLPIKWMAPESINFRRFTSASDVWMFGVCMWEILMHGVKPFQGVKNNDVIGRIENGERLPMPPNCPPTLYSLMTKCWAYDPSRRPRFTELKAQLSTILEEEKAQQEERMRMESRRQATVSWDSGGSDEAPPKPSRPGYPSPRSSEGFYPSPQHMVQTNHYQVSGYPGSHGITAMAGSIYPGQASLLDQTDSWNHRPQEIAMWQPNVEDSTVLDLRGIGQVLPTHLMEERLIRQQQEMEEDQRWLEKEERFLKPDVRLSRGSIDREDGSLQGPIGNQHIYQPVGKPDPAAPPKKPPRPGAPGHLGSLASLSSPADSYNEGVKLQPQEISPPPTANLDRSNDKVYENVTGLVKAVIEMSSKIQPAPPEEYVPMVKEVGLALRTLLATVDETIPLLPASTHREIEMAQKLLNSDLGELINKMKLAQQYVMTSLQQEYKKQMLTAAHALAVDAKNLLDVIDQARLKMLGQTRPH

PDHK4, construct: Full length, human (from UniProt Q16654)
relative phosphorylation
Settings	at +1	at +2	at +3	at +4	at +5	at -1	at -2	at -3	at -4	at -5
A fixed	0.747	0.56	0.742	0.698	0.589	0.81	0.808	0.801	0.946	0.872
D fixed	1.19	1.6	1.29	1.41	1.34	1.15	1.15	1.25	1.27	1.31
E fixed	1.04	1.2	1.49	1.26	1.33	1.02	1.11	0.838	1.11	1.17
F fixed	0.751	0.966	0.945	0.996	1.01	0.723	0.874	0.873	0.94	0.934
G fixed	1.01	0.938	1.02	0.95	1.05	1.17	1.24	1.26	1.19	1.1
H fixed	0.998	1.01	0.995	1.11	1.03	1.05	0.911	0.777	0.983	1.11
I fixed	0.568	0.546	0.652	0.669	0.722	0.654	0.654	0.568	0.739	0.773
K fixed	1.04	0.95	0.777	0.863	0.777	1.14	0.926	1.25	0.945	1.02
L fixed	0.798	0.809	0.798	1.1	1.03	0.823	1.1	0.99	0.827	0.827
M fixed	0.695	0.776	0.891	0.92	0.968	0.75	0.796	0.712	0.822	0.809
N fixed	1.49	1.3	1.16	1.15	1.06	1.34	1.21	1.14	1.01	1.07
P fixed	1.15	1.1	1.09	1.06	0.957	1.27	1.22	1.74	1.1	1.11
Q fixed	1.39	1.42	1.19	1.26	1.21	1.32	1.11	1.24	1.02	1.03
R fixed	1.17	0.976	0.885	0.812	0.798	1.11	1.09	0.868	1.06	0.994
V fixed	0.572	0.565	0.604	0.644	0.703	0.539	0.652	0.645	0.669	0.681
W fixed	1.39	1.28	1.47	1.1	1.44	1.13	1.15	1.05	1.37	1.18
pThr fixed	1.31	1.69	1.35	1.51	1.1	1.43	1.19	1.42	1.32	1.43
pTyr fixed	1.1	1.18	0.974	1.03	1.43	1.09	1.09	0.858	1.18	1.28

PTK2, construct: Full length, human (from UniProt Q05397)
relative phosphorylation
Settings	at +1	at +2	at +3	at +4	at +5	at -1	at -2	at -3	at -4	at -5
A fixed	1.98	0.732	0.861	0.842	1.02	0.632	1.05	0.673	0.936	0.931
D fixed	1.73	1.7	0.677	0.971	1.21	5.68	1.57	1.78	1.51	1.39
E fixed	1.85	2.34	0.705	1.19	1.23	1.38	1.77	2.18	1.61	1.37
F fixed	0.794	1.18	1.29	0.961	0.944	0.654	0.858	1.06	1.21	1.02
G fixed	1.09	0.625	0.731	1.14	1.21	0.575	1.03	0.851	1.08	1.1
H fixed	0.724	0.825	0.752	1.17	0.86	0.57	0.801	1.42	0.891	0.935
I fixed	0.99	1.13	2.19	0.964	0.811	1.17	0.839	0.757	0.968	1.11
K fixed	0.526	0.574	0.561	0.743	0.656	0.508	0.688	0.702	0.708	0.806
L fixed	0.66	0.909	1.58	0.792	0.933	0.784	0.814	0.801	1.08	1.04
M fixed	0.833	0.912	1.03	1.04	0.9	0.637	0.76	1.16	0.859	1.04
N fixed	0.699	1.04	0.613	0.759	0.852	0.882	1.42	1.11	0.917	0.976
P fixed	0.506	0.653	1.5	1.07	1.63	0.553	1.25	0.665	0.895	0.934
Q fixed	0.914	0.677	0.631	0.824	0.841	0.578	0.946	0.85	1	0.909
R fixed	0.538	0.612	0.59	0.758	0.678	0.512	0.689	0.78	0.725	0.868
S fixed	1.1	0.804	0.713	0.849	1.07	0.577	1.02	0.742	0.785	0.802
T fixed	0.879	0.815	0.795	0.815	1.21	0.76	0.765	0.702	0.724	0.808
V fixed	1.27	0.965	1.61	0.933	0.868	0.964	0.882	0.719	0.831	0.884
W fixed	0.911	1.52	1.18	2.19	1.07	0.579	0.833	1.05	1.27	1.07
pThr fixed	5.07	4.12	0.915	1.1	1.89	7.51	2.09	1.88	1.74	1.39
pTyr fixed	3.81	12.2	1.18	1.35	1.58	1.35	1.33	1.76	2.01	1.55

RET, construct: aa658-end, human (from UniProt P07949)
relative phosphorylation
Settings	at +1	at +2	at +3	at +4	at +5	at -1	at -2	at -3	at -4	at -5
A fixed	0.957	0.877	0.845	0.859	0.923	0.865	0.967	0.857	1.08	1.05
D fixed	0.306	0.726	0.705	0.87	0.823	1.29	0.865	1.04	1.02	0.925
E fixed	0.415	0.976	0.636	0.831	0.783	1.2	0.885	1.43	1.1	0.86
F fixed	1.49	1.1	1.12	1.14	0.844	1.02	0.624	0.934	0.881	0.91
G fixed	0.541	0.643	0.88	1.05	1.44	0.5	1.34	1.18	1.27	1.23
H fixed	1.37	0.942	1.17	1.1	1.14	1.4	1.04	1.11	1	1.04
I fixed	1.59	0.802	1.28	0.73	0.765	1.46	0.674	0.606	0.749	0.786
K fixed	0.629	0.939	0.582	1.12	1.17	0.656	1.3	1.11	1.26	1.33
L fixed	1.41	1.07	1.09	0.83	0.76	1.12	0.768	0.748	0.888	0.872
M fixed	1.29	0.996	1.2	1.01	0.972	0.76	0.712	0.769	0.931	0.875
N fixed	0.513	1.21	0.865	1.08	1.09	1.29	1.2	1.14	0.859	1.05
P fixed	0.494	0.965	1.24	1.17	1.54	0.896	1.19	1.15	1.23	1.1
Q fixed	1.06	1.11	1.01	1.22	1.05	1	1.26	0.964	1.16	1.05
R fixed	1.02	1.37	0.818	1.34	1.29	0.672	1.52	1.3	1.31	1.42
S fixed	0.889	0.97	0.884	0.888	1	0.695	1.24	1.09	0.89	0.95
T fixed	0.943	1.01	0.962	0.874	0.952	0.984	1.04	1.04	0.757	0.892
V fixed	1.42	0.924	1.15	0.775	0.635	1.12	0.708	0.646	0.735	0.773
W fixed	1.66	1.37	1.56	1.11	0.819	1.07	0.668	0.879	0.883	0.882
pThr fixed	0.469	1.04	0.392	0.595	0.607	0.878	0.723	1.02	0.966	0.876
pTyr fixed	1.17	1.45	0.459	0.586	0.622	1.46	0.933	1.85	1.23	1.15
